Results taken from article PMC6882859, “Core architecture of a bacterial type II secretion system” (Nature Communications, 2019).

T1: PulE with C-terminal StrepII tag (Klebsiella pneumoniae HS11286, UniProt A0A0H3GRZ5 1-497)
T1 construct: PulE ATPase of the Klebsiella pneumoniae HS11286 type II secretion system; N1E, N2E and CTE domains; also called PulE ATPase; GspE; source: E. coli C43 (DE3) with pspA knockout, co-expressed (from the pul operon in pASK3c, or full-length pulE alone in pASK3c); DDM-solubilised membranes; purified as part of a complex (StrepTrap, Flag resin); not shown: StrepII, C-terminal, kept
T1 sequence: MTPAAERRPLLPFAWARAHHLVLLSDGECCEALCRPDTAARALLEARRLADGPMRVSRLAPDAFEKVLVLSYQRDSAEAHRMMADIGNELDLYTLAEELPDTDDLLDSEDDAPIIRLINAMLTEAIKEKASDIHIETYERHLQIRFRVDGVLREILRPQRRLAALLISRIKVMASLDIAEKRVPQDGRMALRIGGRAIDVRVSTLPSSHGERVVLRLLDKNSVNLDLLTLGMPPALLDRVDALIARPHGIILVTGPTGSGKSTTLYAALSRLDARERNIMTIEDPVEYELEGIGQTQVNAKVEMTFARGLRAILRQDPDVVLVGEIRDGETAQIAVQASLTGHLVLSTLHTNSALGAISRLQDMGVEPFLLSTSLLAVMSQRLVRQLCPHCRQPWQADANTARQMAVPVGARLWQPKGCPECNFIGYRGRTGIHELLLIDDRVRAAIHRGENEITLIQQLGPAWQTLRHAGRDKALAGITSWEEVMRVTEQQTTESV

T2: PulE N1E domain (aa 1-108) with C-terminal StrepII tag (Klebsiella pneumoniae HS11286, UniProt A0A0H3GRZ5 1-108)
T2 construct: N1E domain of PulE, Klebsiella pneumoniae HS11286, aa 1-108; source: E. coli, co-expressed with Pul_(Lcyto) (pASK3c); not shown: StrepII, C-terminal, kept
T2 sequence: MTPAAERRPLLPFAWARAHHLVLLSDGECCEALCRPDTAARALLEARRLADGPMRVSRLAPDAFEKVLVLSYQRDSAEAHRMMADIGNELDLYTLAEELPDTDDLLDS

B1: PulC (natural protein)
chain: MPVSVMRLTNINKGIIKLLPQIVTLIILITAIPQLAKLTWRVVFPVSPEDISALPLTMPPAADPELKNVRPAFTLFGLAVKNSPTPTDAASLNQVPVSSLKLRLAGLLASSNPARSIAIIEKGNQQVSLSTGDPLPGYDARIAAILPDRIIVNYQGRKEAILLFNDSRAPSPPPTAAGNPPLVKRLREQPQNILTYLSISPVLSGDKLLGYRLNPGKDASLFRQSGLQANDLAIALNGIDLRDQEQAQQALQNLADMTEITLTVEREGQRHDIAFALGDE
notes: whole gene as part of the cloned operon pulC to pulO; has an N-terminus in the inner membrane, an HR domain and a PDZ domain; Only the HR domain (homology model) is fitted in the outer membrane complex map; also called GspC; source: E. coli C43 (DE3) with pspA knockout, co-expressed from the pul operon (pASK3c); DDM-solubilised membranes; purified as part of the complex (StrepTrap, Flag resin)
B2: PulM (natural protein)
chain: MANLLIWWRQRTPSEQRLLLGLTGLLAACAFWYGLWQPWRAREAQWRQTLVKEQASLRWMTEQAPRLQQLSQQPAPAAKEALTALVMREAASHGLTVIRLQPQGKRLQITLQPCAFQALIDWLDAPAMRGVNAISLSVTGQPSRPGWVTVNHLLLERDDEG
notes: PulM of the Klebsiella pneumoniae HS11286 type II secretion system; whole gene as part of the cloned operon; also called GspM; source: DDM-solubilised membranes; purified as part of a complex
B3: PulN (natural protein)
chain: MKANWIAGGLLLVLYLLWLTATAPARLLAPMLPPGVQVGQFSGSVWRGAAQPVYWHGERLERLAWSLTLAGWQVSLSDPRGVMGQARLWGLRDLRLQEGRLTAPASLLSRWLMSTMPVKAAGEVTFSLTEGRFSDGRCRHIIAGGAQWRQARLHSPVGSLELAQVNGTFRCTVDGAVALTLRQDSHQLSLSGQGTLSPDGRYLFRGTLQPRQGMPPLLALLVTRPTANNAPGPTPWQLQGKWLPQEQK
notes: PulN of the Klebsiella pneumoniae HS11286 type II secretion system; whole gene as part of the cloned operon pulC to pulO; source: E. coli C43 (DE3) with pspA knockout, co-expressed from the pul operon (pASK3c); DDM-solubilised membranes; purified as part of the complex (StrepTrap, Flag resin)
B4: PulL cytoplasmic domain (aa 1-235) with C-terminal Flag tag (domain or fragment)
chain: MNKINASPQAMLIVRLAAAQAPLHWQLFAPGEPHHEASGRWPTDDASPFPALAEQYPAWVLIPASDCAFHSLNLPAGLRKPPLQVAPFLLEEQLADDVEATHFALLHRQQAQCEIVAVQRQKMRDWLARCESLSLQPLALTPDVLALPWQPPAWSAVQVDEQWLIRHQPWGGMAAENVWLTELLQSEAEEHVIDSYSPPPAAPGVWREQPAQTLLTLAARHPAAQKLSLLQGEFA
notes: cytoplasmic domain of PulL, Klebsiella pneumoniae HS11286, aa 1-235; source: E. coli, co-expressed (pCDF-duet); not shown: Flag, C-terminal, kept
B5: PulL (natural protein)
chain: MNKINASPQAMLIVRLAAAQAPLHWQLFAPGEPHHEASGRWPTDDASPFPALAEQYPAWVLIPASDCAFHSLNLPAGLRKPPLQVAPFLLEEQLADDVEATHFALLHRQQAQCEIVAVQRQKMRDWLARCESLSLQPLALTPDVLALPWQPPAWSAVQVDEQWLIRHQPWGGMAAENVWLTELLQSEAEEHVIDSYSPPPAAPGVWREQPAQTLLTLAARHPAAQKLSLLQGEFAVRRRSAQASWRPARYAALALALLAGANSVLDHRDLARQAEAAQQASRAFYHRWFPTEKKVINPRLQMQQHLQTLTRQAQHAPLVDRLSALQNILSETPGIRLRALSWDAAGNRLQLDIAAVTSRALEQFTQRAQPRFRVRPGDMITKPDGIEGQLTLEENDG
notes: PulL of the Klebsiella pneumoniae HS11286 type II secretion system; bitopic inner membrane protein with a cytoplasmic domain (aa 1-235) and a periplasmic domain; a tag may have been present there; also called GspL; source: DDM-solubilised membranes; purified as part of a complex

Assays:
[1] = molecular target: PulD (Klebsiella pneumoniae HS11286) (UniProt P15644); experiment: cryo-EM structure; outer membrane complex of the co-expressed and co-purified Pul_CDELMNS complex on thin carbon film; focused refinement, C15 symmetry, 4.3 Å overall; PulC HR domain (7-8 Å) and PulS (~7 Å) as rigid-body fitted homology models; top views from a purification without glutaraldehyde
[2] = molecular target: T1, PulE with C-terminal StrepII tag; experiment: SDS-PAGE densitometry of the co-purified complex; Pul_CDELMNS co-expressed and co-purified without glutaraldehyde, phenol extracted; fluorescent emission of Coomassie R250 and Sypro Ruby stained gels; six independent purifications; ratios standardised around PulE; conditions: both partners purified
[3] = molecular target: T2, PulE N1E domain (aa 1-108) with …; experiment: SDS-PAGE densitometry of the co-purified complex; Pul_(E-N1E/Lcyto) complex, two independent purifications, duplicate gels, Coomassie Blue R250 imaged at 680 nm; conditions: both partners purified

Molecule | stoichiometry N [2] | also measured
PulS with C-terminal Flag tag (from UniProt P20440 18-125) (natural protein) | – | stoichiometry N [1]: 1
PulD (from UniProt P15644 28-660) (natural protein) | – | stoichiometry N [1]: 15
B1 | 2.13 relative to PulE | –
B2 | 0.99 relative to PulE | –
B3 | 0.95 relative to PulE | –
B4 | – | stoichiometry N [3]: 1
B5 | 0.97 relative to PulE | –
